# According to the supplement of paper PMC5998384:
# How the values were obtained:
# HeLa Kyoto [1] = test: thermal stability score vs G1/S (z-score of summed log2 fold changes over temperatures); higher = more thermally stable than in G1/S
# HeLa Kyoto [2] = test: melting temperature (median over replicates), in situ; higher = more thermally stable
# HeLa Kyoto [3] = test: solubility change mitosis vs G1/S (difference of NP-40 vs SDS log2 ratios) (log2 ratio difference); higher = more soluble in mitosis
# HeLa Kyoto [4] = test: solubility in G1/S (NP-40 vs SDS abundance) (log2 ratio); higher = more soluble; conditions: cell cycle stage: G1/S
# [5] = cell cycle stage: early G1 (4.5 h after nocodazole release)
# 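For melting temperature (median over replicates), in situ in this document: HeLa Kyoto cells synchronized by double thymidine or nocodazole block, proteins quantified by TMT10plex mass spectrometry, three independent biological replicates.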
# 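For solubility change mitosis vs G1/S (difference of NP-40 vs SDS log2 ratios) in this document: synchronized HeLa Kyoto cells (double thymidine block for G1/S, nocodazole release for mitosis), protein amounts in NP-40 versus SDS lysates quantified by mass spectrometry, three biological replicates.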
# 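For solubility in G1/S (NP-40 vs SDS abundance) in this document: HeLa Kyoto cells arrested at G1/S by double thymidine block, proteins quantified by TMT10plex mass spectrometry in mild NP-40 versus SDS extracts, three biological replicates.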
# 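For thermal stability score vs G1/S (z-score of summed log2 fold changes over temperatures) in this document: synchronized HeLa Kyoto cells, proteins quantified by TMT10plex mass spectrometry, three biological replicates, mitosis taken 0.5 h after nocodazole release, G1/S directly after double thymidine block.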
Sequence,thermal stability score (HeLa Kyoto [1]; [5]),thermal stability score (HeLa Kyoto [1]; cell cycle stage: mitosis),melting temperature (HeLa Kyoto [2]; cell cycle stage: G1/S) [°C],melting temperature (HeLa Kyoto [2]; cell cycle stage: mitosis) [°C],solubility change mitosis (log2) (HeLa Kyoto [3]),solubility in G1/S (log2) (HeLa Kyoto [4])
MKSARAKTPRKPTVKKGSQTNLKDPVGVYCRVRPLGFPDQECCIEVINNTTVQLHTPEGYRLNRNGDYKETQYSFKQVFGTHTTQKELFDVVANPLVNDLIHGKNGLLFTYGVTGSGKTHTMTGSPGEGGLLPRCLDMIFNSIGSFQAKRYVFKSNDRNSMDIQCEVDALLERQKREAMPNPKTSSSKRQVDPEFADMITVQEFCKAEEVDEDSVYGVFVSYIEIYNNYIYDLLEEVPFDPIKPKPPQSKLLREDKNHNMYVAGCTEVEVKSTEEAFEVFWRGQKKRRIANTHLNRESSRSHSVFNIKLVQAPLDADGDNVLQEKEQITISQLSLVDLAGSERTNRTRAEGNRLREAGNINQSLMTLRTCMDVLRENQMYGTNKMVPYRDSKLTHLFKNYFDGEGKVRMIVCVNPKAEDYEENLQVMRFAEVTQEVEVARPVDKAICGLTPGRRYRNQPRGPVGNEPLVTDVVLQSFPPLPSCEILDINDEQTLPRLIEALEKRHNLRQMMIDEFNKQSNAFKALLQEFDNAVLSKENHMQGKLNEKEKMISGQKLEIERLEKKNKTLEYKIEILEKTTTIYEEDKRNLQQELETQNQKLQRQFSDKRRLEARLQGMVTETTMKWEKECERRVAAKQLEMQNKLWVKDEKLKQLKAIVTEPKTEKPERPSRERDREKVTQRSVSPSPVPLSSNYIAQISNGQQLMSQPQLHRRSNSCSSISVASCISEWEQKIPTYNTPLKVTSIARRRQQEPGQSKTCIVSDRRRGMYWTEGREVVPTFRNEIEIEEDHCGRLLFQPDQNAPPIRLRHRRSRSAGDRWVDHKPASNMQTETVMQPHVPHAITVSVANEKALAKCEKYMLTHQELASDGEIETKLIKGDIYKTRGGGQSVQFTDIETLKQESPNGSRKRRSSTVAPAQPDGAESEWTDVETRCSVAVEMRAGSQLGPGYQHHAQPKRKKP [KIF23],0.0501,0.448,49.3,49.6,-0.112,-0.255
MKSLKSRLRRQDVPGPASSGAAAASAHAADWNKYDDRLMKAAERGDVEKVTSILAKKGVNPGKLDVEGRSVFHVVTSKGNLECLNAILIHGVDITTSDTAGRNALHLAAKYGHALCLQKLLQYNCPTEHADLQGRTALHDAAMADCPSSIQLLCDHGASVNAKDVDGRTPLVLATQMSRPTICQLLIDRGADVNSRDKQNRTALMLGCEYGCRDAVEVLIKNGADISLLDALGHDSSYYARIGDNLDILTLLKTASENTNKGRELWKKGPSLQQRNLTHMQDEVNVKSHQREHQNIQDLEIENEDLKERLRKIQQEQRILLDKVNGLQLQLNEEVMVADDLESEREKLKSLLAAKEKQHEESLRTIEALKNRFKYFESDHLGSGSHFSNRKEDMLLKQGQMYMADSQCTSPGIPAHMQSRSMLRPLELSLPSQTSYSENEILKKELEAMRTFCESAKQDRLKLQNELAHKVAECKALALECERVKEDSDEQIKQLEDALKDVQKRMYESEGKVKQMQTHFLALKEHLTSEAASGNHRLTEELKDQLKDLKVKYEGASAEVGKLRNQIKQNEMIVEEFKRDEGKLIEENKRLQKELSMCEMEREKKGRKVTEMEGQAKELSAKLALSIPAEKFENMKSSLSNEVNEKAKKLVEMEREHEKSLSEIRQLKRELENVKAKLAQHVKPEEHEQVKSRLEQKSGELGKKITELTLKNQTLQKEIEKVYLDNKLLKEQAHNLTIEMKNHYVPLKVSEDMKKSHDAIIDDLNRKLLDVTQKYTEKKLEMEKLLLENDSLSKDVSRLETVFVPPEKHEKEIIALKSNIVELKKQLSELKKKCGEDQEKIHALTSENTNLKKMMSNQYVPVKTHEEVKMTLNDTLAKTNRELLDVKKKFEDINQEFVKIKDKNEILKRNLENTQNQIKAEYISLAEHEAKMSSLSQSMRKVQDSNAEILANYRKGQEEIVTLHAEIKAQKKELDTIQECIKVKYAPIVSFEECERKFKATEKELKDQLSEQTQKYSVSEEEVKKNKQENDKLKKEIFTLQKDLRDKTVLIEKSHEMERALSRKTDELNKQLKDLSQKYTEVKNVKEKLVEENAKQTSEILAVQNLLQKQHVPLEQVEALKKSLNGTIENLKEELKSMQRCYEKEQQTVTKLHQLLENQKNSSVPLAEHLQIKEAFEKEVGIIKASLREKEEESQNKMEEVSKLQSEVQNTKQALKKLETREVVDLSKYKATKSDLETQISSLNEKLANLNRKYEEVCEEVLHAKKKEISAKDEKELLHFSIEQEIKDQKERCDKSLTTITELQRRIQESAKQIEAKDNKITELLNDVERLKQALNGLSQLTYTSGNPTKRQSQLIDTLQHQVKSLEQQLADADRQHQEVIAIYRTHLLSAAQGHMDEDVQEALLQIIQMRQGLVC [UACA],1.19,0.0635,48.5,50.6,-0.0155,0.233
MKSNPAIQAAIDLTAGAAGGTACVLTGQPFDTMKVKMQTFPDLYRGLTDCCLKTYSQVGFRGFYKGTSPALIANIAENSVLFMCYGFCQQVVRKVAGLDKQAKLSDLQNAAAGSFASAFAALVLCPTELVKCRLQTMYEMETSGKIAKSQNTVWSVIKSILRKDGPLGFYHGLSSTLLREVPGYFFFFGGYELSRSFFASGRSKDELGPVPLMLSGGVGGICLWLAVYPVDCIKSRIQVLSMSGKQAGFIRTFINVVKNEGITALYSGLKPTMIRAFPANGALFLAYEYSRKLMMNQLEAY [SLC25A15],-2.21,-1.66,58,56.6,-0.0497,0.00397
MKSRFSTIDLRAVLAELNASLLGMRVNNVYDVDNKTYLIRLQKPDFKATLLLESGIRIHTTEFEWPKNMMPSSFAMKCRKHLKSRRLVSAKQLGVDRIVDFQFGSDEAAYHLIIELYDRGNIVLTDYEYVILNILRFRTDEADDVKFAVRERYPLDHARAAEPLLTLERLTEIVASAPKGELLKRVLNPLLPYGPALIEHCLLENGFSGNVKVDEKLETKDIEKVLVSLQKAEDYMKTTSNFSGKGYIIQKREIKPSLEADKPVEDILTYEEFHPFLFSQHSQCPYIEFESFDKAVDEFYSKIEGQKIDLKALQQEKQALKKLDNVRKDHENRLEALQQAQEIDKLKGELIEMNLQIVDRAIQVVRSALANQIDWTEIGLIVKEAQAQGDPVASAIKELKLQTNHVTMLLRNPYLLSEEEDDDVDGDVNVEKNETEPPKGKKKKQKNKQLQKPQKNKPLLVDVDLSLSAYANAKKYYDHKRYAAKKTQKTVEAAEKAFKSAEKKTKQTLKEVQTVTSIQKARKVYWFEKFLWFISSENYLIIGGRDQQQNEIIVKRYLTPGDIYVHADLHGATSCVIKNPTGEPIPPRTLTEAGTMALCYSAAWDARVITSAWWVYHHQVSKTAPTGEYLTTGSFMIRGKKNFLPPSYLMMGFSFLFKVDESCVWRHQGERKVRVQDEDMETLASCTSELISEEMEQLDGGDTSSDEDKEEHETPVEVELMTQVDQEDITLQSGRDELNEELIQEESSEDEGEYEEVRKDQDSVGEMKDEGEETLNYPDTTIDLSHLQPQRSIQKLASKEESSNSSDSKSQSRRHLSAKERREMKKKKLPSDSGDLEALEGKDKEKESTVHIETHQNTSKNVAAVQPMKRGQKSKMKKMKEKYKDQDEEDRELIMKLLGSAGSNKEEKGKKGKKGKTKDEPVKKQPQKPRGGQRVSDNIKKETPFLEVITHELQDFAVDDPHDDKEEQDLDQQGNEENLFDSLTGQPHPEDVLLFAIPICAPYTTMTNYKYKVKLTPGVQKKGKAAKTALNSFMHSKEATAREKDLFRSVKDTDLSRNIPGKVKVSAPNLLNVKRK [NEMF],-0.477,-1.01,50.8,50.2,-0.0231,-0.354
MKSYTPYFILLWSAVGIAKAAKIIIVPPIMFESHMYIFKTLASALHERGHHTVFLLSEGRDIAPSNHYSLQRYPGIFNSTTSDAFLQSKMRNIFSGRLTAIELFDILDHYTKNCDLMVGNHALIQGLKKEKFDLLLVDPNDMCGFVIAHLLGVKYAVFSTGLWYPAEVGAPAPLAYVPEFNSLLTDRMNLLQRMKNTGVYLISRLGVSFLVLPKYERIMQKYNLLPEKSMYDLVHGSSLWMLCTDVALEFPRPTLPNVVYVGGILTKPASPLPEDLQRWVNGANEHGFVLVSFGAGVKYLSEDIANKLAGALGRLPQKVIWRFSGPKPKNLGNNTKLIEWLPQNDLLGHSKIKAFLSHGGLNSIFETIYHGVPVVGIPLFGDHYDTMTRVQAKGMGILLEWKTVTEKELYEALVKVINNPSYRQRAQKLSEIHKDQPGHPVNRTIYWIDYIIRHNGAHHLRAAVHQISFCQYFLLDIAFVLLLGAALLYFLLSWVTKFIYRKIKSLWSRNKHSTVNGHYHNGILNGKYKRNGHIKHEKKVK [UGT8],0.353,-0.0434,,53.8,-0.0716,-0.021
